Results published in EP4772613A1 (GI Cell, Inc., dated 2026).

What was measured:
[1] = molecular target: T1, IL-2Rβ-his (Acro CD2-H5221) (UniProt P14784 27-239); assay: Octet BLI; IL-2Rβ-his on Ni-NTA sensor, analyte 2,000 to 31.25 nM
T1 construct: also called CD122; not shown: his tag
T1 sequence (looked up): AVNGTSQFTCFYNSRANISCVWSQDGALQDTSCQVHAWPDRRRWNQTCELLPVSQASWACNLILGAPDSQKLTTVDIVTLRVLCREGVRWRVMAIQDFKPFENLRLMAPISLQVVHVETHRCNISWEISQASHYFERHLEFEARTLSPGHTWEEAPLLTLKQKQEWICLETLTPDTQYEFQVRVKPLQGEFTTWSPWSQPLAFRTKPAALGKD

[2] = molecular target: T2, IL-2Rβ and common γ chain on HEK-Blue CD122/132 cells (InvivoGen hkb-il2bg) (UniProt P14784 27-551; P31785 23-369, limits assumed); assay: cell-based or functional assay
T2 sequence (looked up) 1: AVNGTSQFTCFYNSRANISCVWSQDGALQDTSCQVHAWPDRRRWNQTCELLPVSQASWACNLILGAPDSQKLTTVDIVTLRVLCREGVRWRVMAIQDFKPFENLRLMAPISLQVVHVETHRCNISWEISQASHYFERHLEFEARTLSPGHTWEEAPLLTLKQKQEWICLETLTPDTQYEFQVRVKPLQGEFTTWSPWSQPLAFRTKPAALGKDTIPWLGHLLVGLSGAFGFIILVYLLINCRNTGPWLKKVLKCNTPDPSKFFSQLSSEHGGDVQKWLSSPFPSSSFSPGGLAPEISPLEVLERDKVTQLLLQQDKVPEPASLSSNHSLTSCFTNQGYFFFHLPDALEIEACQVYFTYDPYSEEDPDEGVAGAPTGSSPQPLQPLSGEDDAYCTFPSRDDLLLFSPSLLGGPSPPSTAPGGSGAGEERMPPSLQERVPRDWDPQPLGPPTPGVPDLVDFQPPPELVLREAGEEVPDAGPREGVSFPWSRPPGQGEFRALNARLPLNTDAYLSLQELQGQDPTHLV
T2 sequence (looked up) 2: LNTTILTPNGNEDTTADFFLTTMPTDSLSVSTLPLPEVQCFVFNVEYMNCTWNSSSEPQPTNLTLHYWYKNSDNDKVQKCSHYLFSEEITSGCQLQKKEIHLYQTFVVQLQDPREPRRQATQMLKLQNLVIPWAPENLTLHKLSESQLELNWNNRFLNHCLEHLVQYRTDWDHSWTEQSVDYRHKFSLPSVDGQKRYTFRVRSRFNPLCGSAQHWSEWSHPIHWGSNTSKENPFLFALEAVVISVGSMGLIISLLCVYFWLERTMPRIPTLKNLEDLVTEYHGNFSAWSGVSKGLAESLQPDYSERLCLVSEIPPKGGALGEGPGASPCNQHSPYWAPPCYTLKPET

Kd [1]: 0.178 µM
koff [1]: 0.000476 s⁻¹
kon [1]: 2670 M⁻¹ s⁻¹
EC50 (ng/ml), STAT5 activity, HEK-Blue CD122/132 reporter cells [2]: 134 ng/mL
B1: GIC-982C15 (IL-2/IL-15v8) (S76K) (Fc fusion)
chain: GSAESKYGPPCPPCPAPEAAGGPSVFLFPPKPKDQLMISRTPEVTCVVVDVSQEDPEVQFNWYVDGVEVHNAKTKPREEQFNSTYRVVSVLTVLHQDWLNGKEYKCKVSNKGLPSSIEKTISKAKGQPREPQVYTLPPSQEEMTKNQVSLTCLVKGFYPSDIAVEWESNGQPENNYKTTPPVLDSDGSFFLYSRLTVDKSRWQEGNVFSCSVLHEALHNHYTQKSLSLSLGGGGGSGGGGSITCPPPMSVEHADIWVKSYSLYSRERYICNSGFKRKAGTSSLTECVLNKATNVAHWTTPSLKCIRGGGGSGGGGSGGGGSGGGGSAPTSSSTKKTQLQLEHLLLDLQMILNGSMHIDATLYTESDVHPSCKVTAMKCFLLELQVISLESKNFHLRPRDLIKNINVIVLELKGSNGNVTESGCKECEELEEKNIVEFLNRWITFCQSIISTLT
